According to patent US20250340604A1 (ENKEFALOS BIOSCIENCES, published 2025):

Tests used:
Assay in all cases: phage selection and phage ELISA on coated receptor ECD
[1] = target: T1, mouse transferrin receptor (Mu TrfR), recombinant extracellular domain (mouse, UniProt Q62351 89-763)
T1 construct: extracellular domain; Recombinant Fc fusion (R&D Systems) or His-tagged (Sino Biologicals)

[2] = target: T2, human leptin receptor (Hu ObR), recombinant extracellular domain (human, UniProt P48357 22-839)
T2 construct: extracellular domain; Recombinant Fc fusion (R&D Systems) or His-tagged (Sino Biologicals)
T2 sequence (looked up): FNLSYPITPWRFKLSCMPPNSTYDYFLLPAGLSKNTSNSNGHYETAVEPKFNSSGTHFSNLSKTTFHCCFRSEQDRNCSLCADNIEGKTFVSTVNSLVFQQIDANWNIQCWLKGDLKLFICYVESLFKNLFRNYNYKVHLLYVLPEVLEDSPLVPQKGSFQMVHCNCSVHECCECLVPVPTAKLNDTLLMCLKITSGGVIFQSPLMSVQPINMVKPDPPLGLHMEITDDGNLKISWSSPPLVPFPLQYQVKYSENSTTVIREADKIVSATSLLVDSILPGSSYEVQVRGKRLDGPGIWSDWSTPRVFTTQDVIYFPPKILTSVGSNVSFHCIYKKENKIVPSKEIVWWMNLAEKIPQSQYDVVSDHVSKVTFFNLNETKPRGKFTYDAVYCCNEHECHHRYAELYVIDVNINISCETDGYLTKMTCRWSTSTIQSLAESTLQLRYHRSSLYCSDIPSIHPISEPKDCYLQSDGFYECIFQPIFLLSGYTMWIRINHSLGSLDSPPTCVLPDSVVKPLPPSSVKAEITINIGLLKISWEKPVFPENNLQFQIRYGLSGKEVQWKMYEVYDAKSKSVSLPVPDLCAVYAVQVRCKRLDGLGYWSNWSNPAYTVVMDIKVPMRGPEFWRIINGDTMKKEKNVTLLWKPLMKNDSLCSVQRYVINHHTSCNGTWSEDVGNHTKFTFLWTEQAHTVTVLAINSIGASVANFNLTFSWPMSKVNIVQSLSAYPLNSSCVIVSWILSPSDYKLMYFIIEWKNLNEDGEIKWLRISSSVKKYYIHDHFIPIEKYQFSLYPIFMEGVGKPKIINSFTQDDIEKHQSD

[3] = target: T3, human transferrin receptor (Hu TrfR), recombinant extracellular domain (human, UniProt P02786 89-760)
T3 construct: extracellular domain; Recombinant Fc fusion (R&D Systems) or His-tagged (Sino Biologicals); also called human TfR
T3 sequence (P02786 89-760): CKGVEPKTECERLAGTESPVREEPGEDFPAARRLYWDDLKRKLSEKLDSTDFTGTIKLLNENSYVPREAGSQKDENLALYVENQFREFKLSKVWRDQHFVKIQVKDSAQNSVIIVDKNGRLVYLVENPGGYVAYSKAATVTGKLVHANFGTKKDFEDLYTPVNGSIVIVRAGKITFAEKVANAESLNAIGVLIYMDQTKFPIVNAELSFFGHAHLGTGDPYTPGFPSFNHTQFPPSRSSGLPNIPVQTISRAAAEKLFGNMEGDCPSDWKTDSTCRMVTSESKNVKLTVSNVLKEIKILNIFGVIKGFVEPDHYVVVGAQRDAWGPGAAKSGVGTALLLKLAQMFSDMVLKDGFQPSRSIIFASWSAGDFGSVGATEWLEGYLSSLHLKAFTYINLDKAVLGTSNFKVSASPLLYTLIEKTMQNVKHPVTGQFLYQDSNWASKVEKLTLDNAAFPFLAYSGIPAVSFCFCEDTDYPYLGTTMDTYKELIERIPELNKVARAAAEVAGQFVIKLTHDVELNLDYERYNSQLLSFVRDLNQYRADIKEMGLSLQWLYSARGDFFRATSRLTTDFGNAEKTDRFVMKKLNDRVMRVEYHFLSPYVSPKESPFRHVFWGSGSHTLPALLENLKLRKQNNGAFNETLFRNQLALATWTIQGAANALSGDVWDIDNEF

[4] = target: T4, human receptor for advanced glycation-end products (Hu RAGE), recombinant extracellular domain (human, UniProt Q15109 23-342)
T4 construct: extracellular domain; Recombinant Fc fusion (R&D Systems) or His-tagged (Sino Biologicals)
T4 sequence (Q15109 23-342): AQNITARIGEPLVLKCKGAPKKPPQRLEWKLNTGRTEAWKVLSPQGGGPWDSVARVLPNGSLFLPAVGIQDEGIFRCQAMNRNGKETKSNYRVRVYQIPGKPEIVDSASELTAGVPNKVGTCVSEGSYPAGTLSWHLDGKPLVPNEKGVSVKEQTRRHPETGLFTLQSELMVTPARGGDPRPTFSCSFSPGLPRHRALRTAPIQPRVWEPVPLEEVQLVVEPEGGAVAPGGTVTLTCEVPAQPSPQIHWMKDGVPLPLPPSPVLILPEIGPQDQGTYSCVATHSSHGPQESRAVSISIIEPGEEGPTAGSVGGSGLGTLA

[5] = target: T5, human HER3/ErbB3 (Hu ErbB3), recombinant extracellular domain (human, UniProt P21860 20-643)
T5 construct: extracellular domain; Recombinant Fc fusion (R&D Systems) or His-tagged (Sino Biologicals)

T1 sequence (Q62351 89-763): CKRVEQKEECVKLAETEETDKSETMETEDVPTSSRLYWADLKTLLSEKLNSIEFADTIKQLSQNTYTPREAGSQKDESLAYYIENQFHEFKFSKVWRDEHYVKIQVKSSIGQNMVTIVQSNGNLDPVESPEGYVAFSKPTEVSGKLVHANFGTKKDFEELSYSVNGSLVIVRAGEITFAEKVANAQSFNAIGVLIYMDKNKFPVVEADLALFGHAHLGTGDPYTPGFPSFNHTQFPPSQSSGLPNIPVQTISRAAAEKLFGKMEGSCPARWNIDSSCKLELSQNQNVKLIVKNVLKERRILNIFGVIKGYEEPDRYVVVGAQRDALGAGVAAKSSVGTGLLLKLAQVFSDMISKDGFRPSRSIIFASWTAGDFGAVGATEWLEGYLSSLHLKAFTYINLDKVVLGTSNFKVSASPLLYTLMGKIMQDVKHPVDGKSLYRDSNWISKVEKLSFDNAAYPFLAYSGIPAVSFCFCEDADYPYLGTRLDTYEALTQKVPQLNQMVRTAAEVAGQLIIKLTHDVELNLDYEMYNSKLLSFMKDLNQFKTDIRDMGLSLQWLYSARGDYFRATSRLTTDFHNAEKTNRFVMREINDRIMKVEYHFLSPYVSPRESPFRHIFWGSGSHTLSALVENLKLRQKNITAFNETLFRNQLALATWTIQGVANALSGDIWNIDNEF

Question: Does GGVCHNLFVIESILFWCRRDSDCPGACICRGNGYCGSGSD (designed binder) [CYC23] bind [1]?
Answer: binds

Question: Does GGVCYVDWPWTLTLWYCRRDSDCPGACICRGNGYCGSGSD (designed binder) [CYC11] bind [2]?
Answer: binds

Question: Does GGVCDPRWLAGWGSCRRDSDCPETCICRGNGYCASGYD (designed binder) [CYC18] bind [3]?
Answer: binds

Question: Does GGVCWQGMMLFFVGEKCRRDSDCPGACICRGNGYCGSGSD (designed binder) [CYC5] bind [2]?
Answer: binds

Question: Does GGVCQSFFWWHSWFGVCRRDSDCPGACICRGNGYCGSGSD (designed binder) [CYC2] bind [2]?
Answer: binds

Question: Does GGVCVSNFWFMHWFGVCRRDSDCPGACICRGNGYCGSGSD (designed binder) [CYC29] bind [4]?
Answer: binds

Question: Does GGVCLVSQWHIESWGQCRRDSDCPGACICRGNGYCGSGSD (designed binder) [CYC41] bind [3]?
Answer: binds

Question: Does GGVCKALWYMGWGTCRRDSDCPGACICRGNGYCGSGSD (designed binder) [CYC24] bind [3]?
Answer: binds

Question: Does GGVCKQNWLPGWGTCRRDSDCPGACICRGNGYCGSGSD (designed binder) [CYC25] bind [3]?
Answer: binds

Question: Does GGVCPTAMWFDWFTVYCRRDSDCPGACICRGNGYCGSGSD (designed binder) [CYC13] bind [2]?
Answer: binds

Question: Does GGVCAYVHDWYHHVMYCRRDSDCPGACICRGNGYCGSGSD (designed binder) [CYC20] bind [1]?
Answer: binds

Question: Does GGVCFLWFWYGFSRTLCRRDSDCPGACICRGNGYCGSGSD (designed binder) [CYC14] bind [2]?
Answer: binds

Question: Does GGVCRYQEWHMESWGSCRRDSDCPGACICRGNGYCGSGSD (designed binder) [CYC43] bind [3]?
Answer: binds

Question: Does GGVCWRWTPKIWVLEEMSSCSDCPGACICRGNGYCGSGSD (designed binder) [CYC4] bind [2]?
Answer: binds

Question: Does GGVCEWSDWFPYEFLFCRRDSDCPGACICRGNGYCGSGSD (designed binder) [CYC12] bind [2]?
Answer: binds

Question: Does GGVCQMVSEHWVARVWCRRDSDCPGACICRGNGYCGSGSD (designed binder) [CYC45] bind [3]?
Answer: binds

Question: Does GGVCVQPWYSWFMEQGCRRDSDCPGACICRGNGYCGSGSD (designed binder) [CYC9] bind [2]?
Answer: binds

Question: Does GGVCQEERWHMHSWGPCRRDSDCPGACICRGNGYCGSGSD (designed binder) [CYC42] bind [3]?
Answer: binds

Question: Does GGVCPTQTWWFWLPAQCRRDSDCPGACICRGNGYCGSGSD (designed binder) [CYC10] bind [2]?
Answer: binds

Question: Does GGVCYDWGWFWPFEQYCRRDSDCPGACICRGNGYCGSGSD (designed binder) [CYC7] bind [2]?
Answer: binds

Question: Does GGVCEYFRWHLDSWGECRRDSDCPGACICRGNGYCGSGSD (designed binder) [CYC40] bind [3]?
Answer: binds

Question: Does GGVCLYEAWHLPSWGQCRRDSDCPGACICRGNGYCGSGSD (designed binder) [CYC44] bind [3]?
Answer: binds

Question: Does GGVCPWPKWTYMAQKYCRRDSDCPGACICRGNGYCGSGSD (designed binder) [CYC1] bind [2]?
Answer: binds

Question: Does GGVCSDRWDWMFATWLCRRDSDCPGACICRGNGYCGSGSD (designed binder) [CYC8] bind [2]?
Answer: binds

Question: Does GGVCHSQFWPWEWYQFCRRDSDCPGACICRGNGYCGSGSD (designed binder) [CYC3] bind [2]?
Answer: binds

Question: Does GGVCWWDKWVFPISRQCRRDSDCPGACICRGNGYCGSGSD (designed binder) [CYC16] bind [5]?
Answer: binds

Question: Does GGVCRHSYSQIPLWCRRDSDCPGACICRGNGYCGSGSD (designed binder) [CYC15] bind [5]?
Answer: binds

Question: Does GGVCGWFYWYHKWFGPCRRDSDCPGACICRGNGYCGSGSD (designed binder) [CYC6] bind [2]?
Answer: binds

Question: Does GGVCTVWPFVWWGGVPCRRDSDCPGACICRGNGYCGSGSD (designed binder) [CYC19] bind [1]?
Answer: binds

Question: Does GGVCHVGYWWHIWMGACRRDSDCPGACICRGNGYCGSGSD (designed binder) [CYC28] bind [4]?
Answer: binds

Question: Does GGVCQTVFPMWPWYQLCRRDSDCPGACICRGNGYCGSGSD (designed binder) [CYC22] bind [1]?
Answer: binds

Question: Does GGVCMHNSASHNIQMQCRRDSDCPGACICRGNGYCGSGSD (designed binder) [CYC21] bind [1]?
Answer: binds
